Experimental data: patent US20260242419A1, “A CYCLIC PEPTIDE FOR TRAPPING INTERLEUKIN-1 BETA” (Merck Sharp & Dohme LLC, priority 2023, published 2026)
Starred links: 1 amine or outer side, 2 acyl side, 3 side chain; linkers in the order of their positions; H or OH if unused. Non-standard residues stand in square brackets, D forms with d. SbOHPhe4CONH2 = (2S,3S)-2-amino-3-(4-carbamoylphenyl)-3-hydroxypropanoic acid, NC(=O)c1ccc([C@H](O[*:3])[C@H](N[*:1])C(=O)[*:2])cc1; TyrEtNAc = (2S)-3-[4-(2-acetamidoethoxy)phenyl]-2-amino-propanoic acid, CC(=O)NCCOc1ccc(C[C@H](N[*:1])C(=O)[*:2])cc1; alThrOEt = O-ethyl-L-allothreonine, CCO[C@@H](C)[C@H](N[*:1])C(=O)[*:2]; ThrOEt = O-ethyl-L-threonine, CCO[C@H](C)[C@H](N[*:1])C(=O)[*:2]; dPro(4R-(4-pyridylmethyl)) = O=C(O)[C@H]1C[C@@H](Cc2ccncc2)CN1; Trp(βS-Me,4-F) = C[C@@H](c1c[nH]c2cccc(F)c12)[C@H](N)C(=O)O; Bip(4'-CONH2) = NC(=O)c1ccc(-c2ccc(C[C@H](N)C(=O)O)cc2)cc1; dPro(3S-(4-F-Bn)) = O=C(O)[C@@H]1NCC[C@@H]1Cc1ccc(F)cc1; Ala(pyrimidin-5-yl) = N[C@@H](Cc1cncnc1)C(=O)O; Phe(4-CONH2) = NC(=O)c1ccc(C[C@H](N)C(=O)O)cc1; Pro(cis-4-F) = O=C(O)[C@@H]1C[C@H](F)CN1; d(αMeD) = C[C@@](N)(CC(=O)O)C(=O)O; 4Pal = N[C@@H](Cc1ccncc1)C(=O)O; NMeDab = CN[C@@H](CCN)C(=O)O; Dab = NCC[C@H](N)C(=O)O; Aib = CC(C)(N)C(=O)O

biological target: Recombinant human IL-1β (BioLegend 579404) (human, UniProt P01584 117-269); assay: cell-based or functional assay

| MRC5 IC50 [nM] | Binder |
| --- | --- |
| 0.018 | cyclo([Bip(4'-CONH2)][4Pal][Phe(4-CONH2)]G[Pro(cis-4-F)][Trp(βS-Me,4-F)][Aib]SW[d(αMeD)][Ala(pyrimidin-5-yl)]Q[Dab]G[dPro(3S-(4-F-Bn))]) (SMILES C[C@@H](c1c[nH]c2cccc(F)c12)[C@@H]1NC(=O)[C@@H]2C[C@H](F)CN2C(=O)CNC(=O)[C@H](Cc2ccc(C(N)=O)cc2)NC(=O)[C@H](Cc2ccncc2)NC(=O)[C@H](Cc2ccc(-c3ccc(C(N)=O)cc3)cc2)NC(=O)[C@H]2[C@@H](Cc3ccc(F)cc3)CCN2C(=O)CNC(=O)[C@H](CCN)NC(=O)[C@H](CCC(N)=O)NC(=O)[C@H](Cc2cncnc2)NC(=O)[C@@](C)(CC(=O)O)NC(=O)[C@H](Cc2c[nH]c3ccccc23)NC(=O)[C@H](CO)NC(=O)C(C)(C)NC1=O) [SEQ ID NO 380] |
| 0.041 | cyclo([TyrEtNAc][4Pal][Phe(4-CONH2)]G[Pro(cis-4-F)][Trp(βS-Me,4-F)][Aib]SW[Aib][alThrOEt]Q[NMeDab]G[dPro(4R-(4-pyridylmethyl))]) (SMILES CCO[C@@H](C)[C@@H]1NC(=O)C(C)(C)NC(=O)[C@H](Cc2c[nH]c3ccccc23)NC(=O)[C@H](CO)NC(=O)C(C)(C)NC(=O)[C@H]([C@@H](C)c2c[nH]c3cccc(F)c23)NC(=O)[C@@H]2C[C@H](F)CN2C(=O)CNC(=O)[C@H](Cc2ccc(C(N)=O)cc2)NC(=O)[C@H](Cc2ccncc2)NC(=O)[C@H](Cc2ccc(OCCNC(C)=O)cc2)NC(=O)[C@H]2C[C@@H](Cc3ccncc3)CN2C(=O)CNC(=O)[C@H](CCN)N(C)C(=O)[C@H](CCC(N)=O)NC1=O) [SEQ ID NO 381] |
| 0.048 | cyclo([TyrEtNAc][4Pal][Phe(4-CONH2)]G[Pro(cis-4-F)][Trp(βS-Me,4-F)][Aib]SW[Aib][ThrOEt]Q[NMeDab]G[dPro(4R-(4-pyridylmethyl))]) (SMILES CCO[C@H](C)[C@@H]1NC(=O)C(C)(C)NC(=O)[C@H](Cc2c[nH]c3ccccc23)NC(=O)[C@H](CO)NC(=O)C(C)(C)NC(=O)[C@H]([C@@H](C)c2c[nH]c3cccc(F)c23)NC(=O)[C@@H]2C[C@H](F)CN2C(=O)CNC(=O)[C@H](Cc2ccc(C(N)=O)cc2)NC(=O)[C@H](Cc2ccncc2)NC(=O)[C@H](Cc2ccc(OCCNC(C)=O)cc2)NC(=O)[C@H]2C[C@@H](Cc3ccncc3)CN2C(=O)CNC(=O)[C@H](CCN)N(C)C(=O)[C@H](CCC(N)=O)NC1=O) [SEQ ID NO 382] |
| 0.042 | cyclo([TyrEtNAc][4Pal][SbOHPhe4CONH2]G[Pro(cis-4-F)][Trp(βS-Me,4-F)][Aib]SW[Aib][Ala(pyrimidin-5-yl)]Q[NMeDab]G[dPro(4R-(4-pyridylmethyl))]) (SMILES CC(=O)NCCOc1ccc(C[C@@H]2NC(=O)[C@H]3C[C@@H](Cc4ccncc4)CN3C(=O)CNC(=O)[C@H](CCN)N(C)C(=O)[C@H](CCC(N)=O)NC(=O)[C@H](Cc3cncnc3)NC(=O)C(C)(C)NC(=O)[C@H](Cc3c[nH]c4ccccc34)NC(=O)[C@H](CO)NC(=O)C(C)(C)NC(=O)[C@H]([C@@H](C)c3c[nH]c4cccc(F)c34)NC(=O)[C@@H]3C[C@H](F)CN3C(=O)CNC(=O)[C@H]([C@@H](O)c3ccc(C(N)=O)cc3)NC(=O)[C@H](Cc3ccncc3)NC2=O)cc1) [SEQ ID NO 383] |
| 0.086 | cyclo([TyrEtNAc][4Pal][Phe(4-CONH2)]G[Pro(cis-4-F)][Trp(βS-Me,4-F)][Aib]SW[Aib][Ala(pyrimidin-5-yl)]Q[Dab]G[dPro(4R-(4-pyridylmethyl))]) [SEQ ID NO 384] |
